The record followed here is article doi:10.1101/2025.03.24.644901.

This assay deals with MBP-SCC1 (aa 100-320) with C-terminal tetracysteine motif, FlAsH-labelled (human) (UniProt O60216). Kind of assay: fluorescence polarisation.
MBP-SCC1 (aa 100-320) with C-terminal tetracysteine motif, FlAsH-labelled (human), sequence (O60216 100-320): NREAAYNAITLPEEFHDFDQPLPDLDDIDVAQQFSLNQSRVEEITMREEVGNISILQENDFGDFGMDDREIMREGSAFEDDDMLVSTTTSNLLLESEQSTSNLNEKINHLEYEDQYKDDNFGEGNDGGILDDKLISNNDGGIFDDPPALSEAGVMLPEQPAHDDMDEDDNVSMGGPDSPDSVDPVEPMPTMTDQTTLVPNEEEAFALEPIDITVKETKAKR

In the case of “inactive apo-separase (separase^C2029S), Q14674 1-2120”, the fold lower Kd than for SCC1^350–550 was determined as 3 fold.
